Data published in patent US20220010021A1 (Sanofi, published 2022).
Numbering of substitutions follows the chain as printed. Numbers in names are those of the source.

B1: 16H7 light chain variant S29P (antibody, human IgG4 S228P, lambda, V domains shown)
VH: not shown
VL: SYVLTQPPSVSVAPGQTARITCGGNNIGPESVHWYQQKPGQAPVLVVYDDSDRPSGIPERFSGSNSGNTATLTISRVEAGDEADYYCQVWDGNSDHVVFGGGTKLTVLG
B2: 16H7 light chain variant S31D (antibody, human IgG4 S228P, lambda, V domains shown)
VH: not shown
VL: B1 VL with P29S, S31D
B3: 16H7 light chain variant S29Q (antibody, human IgG4 S228P, lambda, V domains shown)
VH: not shown
VL: B1 VL with P29Q
B4: 16H7 light chain variant S31M (antibody, human IgG4 S228P, lambda, V domains shown)
VH: not shown
VL: B1 VL with P29S, S31M
B5: 16H7 light chain variant S29T (antibody, human IgG4 S228P, lambda, V domains shown)
VH: not shown
VL: B1 VL with P29T
B6: 16H7 light chain variant S31R (antibody, human IgG4 S228P, lambda, V domains shown)
VH: not shown
VL: B1 VL with P29S, S31R
B7: 16H7 light chain variant S31C (antibody, human IgG4 S228P, lambda, V domains shown)
VH: not shown
VL: B1 VL with P29S, S31C
B8: 16H7 light chain variant S29R (antibody, V domains shown)
VH: not shown
VL: B1 VL with P29R
notes: copies: 2 + 2
B9: 16H7 light chain variant S31E (antibody, V domains shown)
VH: not shown
VL: B1 VL with P29S, S31E
notes: copies: 2 + 2
B10: 16H7 light chain variant S31P (antibody, V domains shown)
VH: not shown
VL: B1 VL with P29S, S31P
notes: copies: 2 + 2
B11: 16H7 light chain variant S31A (antibody, V domains shown)
VH: not shown
VL: B1 VL with P29S, S31A
notes: copies: 2 + 2
B12: 16H7 light chain variant S29V (antibody, human IgG4 S228P, lambda, V domains shown)
VH: not shown
VL: B1 VL with P29V
B13: 16H7 light chain variant S31I (antibody, human IgG4 S228P, lambda, V domains shown)
VH: not shown
VL: B1 VL with P29S, S31I
B14: 16H7 light chain variant S31G (antibody, human IgG4 S228P, lambda, V domains shown)
VH: not shown
VL: B1 VL with P29S, S31G

Experiments:
[1] = target: cell surface receptor composed of FGFR1c and co-receptor beta-Klotho (KLB) (human, UniProt P11362 22-822; Q86Z14 1-1044); test: cell-based or functional assay; on Mean E max, Luciferase reporter gene assay: reference of the scale not given here
[2] = target: T1, human beta-Klotho (KLB) (human, UniProt Q86Z14 53-997); test: BLI off-rate screen, supernatant;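 further: expression supernatants tested at 25 µg/mL, dissociation followed for 1800 s in D-PBS with 0.1% BSA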
T1 construct: Bought soluble protein; also called human KLB; ß-Klotho
T1 sequence (looked up): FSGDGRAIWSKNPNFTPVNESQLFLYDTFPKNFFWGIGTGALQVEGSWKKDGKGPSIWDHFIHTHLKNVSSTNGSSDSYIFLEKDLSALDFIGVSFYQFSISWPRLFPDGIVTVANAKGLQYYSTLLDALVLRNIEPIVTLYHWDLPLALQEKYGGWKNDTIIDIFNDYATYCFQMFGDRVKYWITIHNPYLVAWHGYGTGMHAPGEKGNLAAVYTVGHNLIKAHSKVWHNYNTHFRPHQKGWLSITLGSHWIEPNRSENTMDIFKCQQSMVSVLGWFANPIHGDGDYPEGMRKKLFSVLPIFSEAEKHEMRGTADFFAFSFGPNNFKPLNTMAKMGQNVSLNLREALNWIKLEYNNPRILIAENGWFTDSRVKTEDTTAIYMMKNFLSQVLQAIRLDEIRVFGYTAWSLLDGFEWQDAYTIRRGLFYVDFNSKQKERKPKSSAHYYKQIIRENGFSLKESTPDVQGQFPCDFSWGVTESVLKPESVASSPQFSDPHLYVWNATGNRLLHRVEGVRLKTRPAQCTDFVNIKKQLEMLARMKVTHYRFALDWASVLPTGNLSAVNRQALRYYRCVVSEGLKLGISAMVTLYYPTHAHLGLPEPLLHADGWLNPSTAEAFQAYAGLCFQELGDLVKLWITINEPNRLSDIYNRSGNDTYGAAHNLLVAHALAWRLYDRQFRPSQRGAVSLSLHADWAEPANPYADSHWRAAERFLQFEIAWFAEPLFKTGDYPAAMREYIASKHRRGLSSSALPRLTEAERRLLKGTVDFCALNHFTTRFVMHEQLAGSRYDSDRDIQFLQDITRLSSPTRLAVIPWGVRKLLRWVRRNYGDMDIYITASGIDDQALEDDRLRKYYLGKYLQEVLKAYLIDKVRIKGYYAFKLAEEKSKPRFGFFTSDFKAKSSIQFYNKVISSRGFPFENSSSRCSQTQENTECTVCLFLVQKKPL

cell surface receptor composed of FGFR1c and co-receptor beta-Klotho (KLB), sequence (P11362 22-822, chain 1 of 2): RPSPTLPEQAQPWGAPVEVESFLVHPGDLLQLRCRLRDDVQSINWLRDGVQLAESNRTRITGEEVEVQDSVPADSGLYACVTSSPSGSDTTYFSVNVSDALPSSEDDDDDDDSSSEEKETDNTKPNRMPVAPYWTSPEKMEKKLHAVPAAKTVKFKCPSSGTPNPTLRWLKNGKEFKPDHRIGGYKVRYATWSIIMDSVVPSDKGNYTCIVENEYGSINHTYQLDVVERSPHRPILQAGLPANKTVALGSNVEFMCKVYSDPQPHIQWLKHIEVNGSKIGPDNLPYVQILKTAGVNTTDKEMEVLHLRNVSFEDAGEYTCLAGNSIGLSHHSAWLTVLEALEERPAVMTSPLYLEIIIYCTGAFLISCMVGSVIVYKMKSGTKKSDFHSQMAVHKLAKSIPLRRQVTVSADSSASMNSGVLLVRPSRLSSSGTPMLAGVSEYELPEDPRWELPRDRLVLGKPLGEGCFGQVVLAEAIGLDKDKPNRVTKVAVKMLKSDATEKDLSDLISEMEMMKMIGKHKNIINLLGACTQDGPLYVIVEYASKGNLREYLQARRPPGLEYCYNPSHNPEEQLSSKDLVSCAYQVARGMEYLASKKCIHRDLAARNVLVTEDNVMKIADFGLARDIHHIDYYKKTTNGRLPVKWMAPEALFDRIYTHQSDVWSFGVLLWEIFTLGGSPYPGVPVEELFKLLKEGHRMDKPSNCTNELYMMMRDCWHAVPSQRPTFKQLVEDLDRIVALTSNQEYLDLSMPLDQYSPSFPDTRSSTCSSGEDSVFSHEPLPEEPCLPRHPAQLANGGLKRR
cell surface receptor composed of FGFR1c and co-receptor beta-Klotho (KLB), sequence (Q86Z14 whole entry, chain 2 of 2): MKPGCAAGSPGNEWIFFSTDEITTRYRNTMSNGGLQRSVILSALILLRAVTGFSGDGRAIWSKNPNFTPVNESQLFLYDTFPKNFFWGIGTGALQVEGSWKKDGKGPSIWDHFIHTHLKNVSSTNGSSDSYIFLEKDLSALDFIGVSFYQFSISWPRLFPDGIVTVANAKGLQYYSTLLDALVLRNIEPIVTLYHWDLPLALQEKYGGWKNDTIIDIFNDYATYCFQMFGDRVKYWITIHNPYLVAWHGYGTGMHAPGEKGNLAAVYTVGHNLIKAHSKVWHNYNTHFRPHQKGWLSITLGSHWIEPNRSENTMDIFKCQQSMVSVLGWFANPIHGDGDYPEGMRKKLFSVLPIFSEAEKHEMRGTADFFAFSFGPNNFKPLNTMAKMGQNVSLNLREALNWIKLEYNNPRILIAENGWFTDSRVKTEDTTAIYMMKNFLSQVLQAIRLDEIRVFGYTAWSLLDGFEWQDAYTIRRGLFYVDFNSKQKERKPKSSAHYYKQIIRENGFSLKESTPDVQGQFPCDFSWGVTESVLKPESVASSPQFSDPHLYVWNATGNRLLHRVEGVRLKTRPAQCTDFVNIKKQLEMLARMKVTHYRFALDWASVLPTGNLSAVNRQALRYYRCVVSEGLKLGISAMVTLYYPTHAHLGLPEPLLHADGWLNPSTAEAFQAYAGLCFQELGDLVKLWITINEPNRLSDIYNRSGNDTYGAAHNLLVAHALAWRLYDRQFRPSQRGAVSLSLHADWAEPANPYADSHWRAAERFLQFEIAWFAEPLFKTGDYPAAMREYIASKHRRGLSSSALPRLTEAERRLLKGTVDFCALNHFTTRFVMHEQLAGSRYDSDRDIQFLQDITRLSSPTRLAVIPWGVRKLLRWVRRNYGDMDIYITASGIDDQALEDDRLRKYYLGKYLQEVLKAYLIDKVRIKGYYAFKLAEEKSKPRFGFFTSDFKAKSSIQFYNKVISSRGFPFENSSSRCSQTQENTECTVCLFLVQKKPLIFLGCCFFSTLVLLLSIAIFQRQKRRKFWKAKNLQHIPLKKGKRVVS

Binder	Mean E max, Luciferase reporter gene assay [1]	Mean EC50, Luciferase reporter gene assay [1]	koff [2]
B1	105%	0.174 nM	5.2e-05 s⁻¹
B2	99%	0.077 nM	0.00019 s⁻¹
B3	102%	0.114 nM	2.2e-05 s⁻¹
B4	97%	0.151 nM	0.0003 s⁻¹
B5	102%	0.096 nM	2.2e-05 s⁻¹
B6	102%	0.166 nM	4.2e-05 s⁻¹
B7	100%	0.128 nM	0.00017 s⁻¹
B8	105%	0.184 nM	6.7e-06 s⁻¹
B9	98%	0.111 nM	0.00031 s⁻¹
B10	103%	0.104 nM	6.6e-05 s⁻¹
B11	100%	0.099 nM	5.8e-05 s⁻¹
B12	107%	0.109 nM	1.3e-05 s⁻¹
B13	93%	0.089 nM	0.00015 s⁻¹
B14	109%	0.111 nM	5.5e-05 s⁻¹
